Results published in publication PMC4918322.

Target: PLK1 (UniProt P53350)
Assay: anti-V5 co-immunoprecipitation, PLK1 blot
Details: reference: wild-type RSF1-C1; sites S1375

## RSF1 C1, 627-1441 (from UniProt Q96T23) S1375A
  binding against the reference: lost
